Experimental data taken from paper PMC6996395.
“Also recorded” adds a separate entry of the source.

Experiments:
Assay in all cases: in situ proximity ligation assay
Conditions in all cases: reference: wild-type R-region
[1] = biological target: CFTR (split-CFTR: front half, R-region and back half as separate polypeptides) back half, 837-1480 (UniProt P13569)
[2] = biological target: CFTR (split-CFTR: front half, R-region and back half as separate polypeptides) front half, 1-634 (UniProt P13569)
[3] = biological target: CFTR (split-CFTR: front half, R-region and back half as separate polypeptides) front half, 1-634 (UniProt P13569); remark: listed apart in the source

CFTR (split-CFTR: front half, R-region and back half as separate polypeptides) R-region, 635-836 (from UniProt P13569) S686D, sequence (P13569 1-634, stated change not applied): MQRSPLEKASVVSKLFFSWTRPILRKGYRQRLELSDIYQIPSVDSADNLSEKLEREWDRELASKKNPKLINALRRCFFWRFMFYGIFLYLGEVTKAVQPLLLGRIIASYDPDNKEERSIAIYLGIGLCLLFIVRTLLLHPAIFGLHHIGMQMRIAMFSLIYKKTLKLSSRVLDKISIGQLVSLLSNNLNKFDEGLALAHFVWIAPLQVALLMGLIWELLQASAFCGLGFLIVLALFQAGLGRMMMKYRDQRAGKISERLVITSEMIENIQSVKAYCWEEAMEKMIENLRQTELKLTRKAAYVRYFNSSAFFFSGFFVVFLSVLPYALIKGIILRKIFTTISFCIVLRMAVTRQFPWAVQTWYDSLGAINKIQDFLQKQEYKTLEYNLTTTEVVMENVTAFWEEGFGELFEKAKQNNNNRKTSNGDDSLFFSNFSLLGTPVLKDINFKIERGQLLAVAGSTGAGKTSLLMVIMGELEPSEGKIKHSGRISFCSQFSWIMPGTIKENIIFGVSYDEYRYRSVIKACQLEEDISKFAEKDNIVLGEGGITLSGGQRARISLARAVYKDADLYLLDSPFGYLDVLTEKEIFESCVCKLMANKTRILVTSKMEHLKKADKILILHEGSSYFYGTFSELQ

Row | other: PLA CTCF ([1]; sites S641,T682) | other: PLA CTCF ([3]; sites S641,T682) | other: PLA CTCF ([1]; sites S686) | other: PLA CTCF ([3]; sites S686) | Substance | other: PLA CTCF ([2]; sites S641,T682) | other: PLA CTCF ([2]; sites S686)
1 | stronger; reference 3.41 ± 0.20 | stronger; reference 3.29 ± 0.24 |  |  | CFTR (split-CFTR: front half, R-region and back half as separate polypeptides) R-region, 635-836 (from UniProt P13569) S641A/T682A | weaker; reference 3.90 ± 0.18; also recorded: stronger; reference 7.91 ± 0.21 | 
2 |  |  | weaker; reference 3.41 ± 0.20 | weaker; reference 3.29 ± 0.24 | CFTR (split-CFTR: front half, R-region and back half as separate polypeptides) R-region, 635-836 (from UniProt P13569) S686A |  | stronger; reference 3.90 ± 0.18; also recorded: same; reference 5.67 ± 0.55; also recorded: weaker; reference 7.91 ± 0.21
3 |  |  |  | stronger; reference 3.29 ± 0.24 | CFTR (split-CFTR: front half, R-region and back half as separate polypeptides) R-region, 635-836 (from UniProt P13569) S686D |  | same; reference 5.67 ± 0.55; also recorded: weaker; reference 7.91 ± 0.21
